The values that follow come from the NTF2 design screens of Basanta et al. (2020).

This data set is described as follows: protease stability score; higher = more stable; yeast display proteolysis, trypsin and chymotrypsin.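 Note: relative to predicted unfolded state with 0 unfolded-like and 1 meaning tenfold more protease.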
In the case of “SDEDEEMRELMERIHHAIKTGDEDLLHHMFDPNARVDIDGQIWHGREWEHFFLRKFKGLRIEIKRVHVQGDKIHFRGLDEINGVKFDSHLIIIIVNGKTHAIEIDHR”, the protease stability score came out at 1.53. Next, “SDEDEISKHWVELLVEHIKTGDEDFLFKMFDPNVRVIIGDKIMHGRETLLDLIEKELKEAGITRFSMNLHHVDTQGDKAHSNMILDVNGVYRNVRVHFEKIDGKWHMHTWEER”: 1.99; “SDEDHEAHRMMRLFFEAQRTGDEHLVRKLVDPDVRTFYGEKHMHGRRHHVEILLEIRIHRLTITELRVYGEKVRMDIRVDEQIGDKRREVRFELHLVVIDGVLKVVSIDME”: 0.92. With “SDEDHSSHLAHRWLLEILETGDEERLLRLADPNYRLDVDGRRFIGREDLLRWMKHVVERADHIELRDHHVDNQGDKVSSDVIVNERFDGKTERYRTHIVINKFDGKWVFHRFKIK” the figure was 0.928; with “SDEDKELEHVMKKFEDALSTGDENTLYSLLDPNVKLEIGDKEIHGMEEFVRVMKRHLHELGAKFRSITIEHWNIIGEKVRLHSKIILDFNGRDIFLNTHIVMFKFDGRWIFETFKIQ”, 2.23. Next, “SDEDRLNYEIAKYLLDSLRTGDWHTFRRMADPHVKIRTVINGQELRMHGMEDLMERWKLLGFDHTRVHVEHIEIQGDKAHVRGTVKININGQEHTYETDLDVQIVNGRVESINFNWL”: 1.14.

Turning to “SDEEDHWHELLERIVRLLMTGDEKTLNKLFDPNMRIIIIIGDKEIRLHGRHKFEKWVRDFLNKFKNVKIEIDDHRAVNGVVQIDGTLFIDGREHHVENNFFIVNGRITEIQIHIK”, the protease stability score worked out at 1.28. With “SDEEDTLESVYKLLEHIERTGDWRIWKELADPNVRVELHVNGVEITDHGREAVERLMLKFGVDHIHFKDFDHRTYNGVVHIQEDIVLNINGREIRTKREISADKVNGKWVFRSVRMKID” the figure was 1.69.

As to “SDEEEDIERAIRLMHEIHETGDESVWEHLADPHVKVDFNGQERHGREDMIKIWHYLGVKHVFFRDIRVQGEFLVVHSEDNVDGKTFQIRYLVFKINGRWFLEEVEFD”, the protease stability score stood at 0.942. Next, “SDEEEEERRIAHELRHFWETGDEDAFRDMLDPHTRLQIDINGRHFHLHGREHIVRHLSEVWNKFGVKHLKFHDHHVVNGVTHMDGEENIGDKRRRVRIIIIVVNGRVRMVRIQIE”: 1.45.

As to “SDEEEEVREYYEKWFHDVYTGDEDSFRDMLDPHVKVEINGKELHGRENAEKFEKRMGVDHLNIRRFHFWDGRLEIRGESEYGDKRFKTEIHAIKINGRWVVKLIRFE”, the protease stability score came out at 0.761. With “SDEEEILRRLMQEYYEIFFTGNEEFLHRLADPHVRFLVNGQWYHGREQFTRMFVELLEKLGAKHIELDRHTVRIIDGRIEIIIHTTIKVDGKEHTMHIIVNVEKINGRWILRSMEMEVR” the figure was 1.34. With “SDEEELYEILLEIELKSAMTGDWRNLKDLLDPDTRIHFNGVEIHGREHAEKHLKRYDVDKIEDVRYRDMRFQGDKARVHGEVRILLQFDGRRMEIDTTIQVINYKVNGVWIIESLHFE” the figure was 1.24.

Consider “SDEEENLKEWVRLMYESARTGDEDSTSHLIDPNVRIHVNGRELHGRELVLEHLRRIDHVELRIHIREVETYDGRLKVEGELREIMIFNGKRVDLRIDTVFINLKVNGRWVLKEVHII”, for which the protease stability score was determined as 1.34.

Take “SDEEERIRRVAEHILHLILTGDEDRWEDMMDPNVRVHIDWNGVKIHLHGREKAAEFFKRFKNIRIEIHSVRIIGEKNDSDERLHVNGQTRDLHNHIIVVNGRIEHMEIRVR”: the protease stability score came out at 2.66. Next, “SDEEERLERVSELLLHAIETGDWRILAELADPHVRLEIGDKEIHGREIVVDLIRKEYDKYKNMRITNEDFDVQGNKTEWHVNIHIGDKEVRIHIYNVVINGKIRRRHIHIR”: 1.23; “SDEEERLRDFVRRYMESMRTGDEDTWRTMLDPNVQVTINGRWEIGRESAYEFLWTVFTHLGVDHLELDHFHLYGEKIELDLTAFVNGQTKKVRVELIVIDGKLKSEKIHDK”: 1.12; “SDEEERTRTAIEQLIELRLTGDEEMLHKLVDPHYRLHFIVDGRDLDFIGWRDFQRIFHEETKKFKNMRIEWRHVDIVNGVVTVHIELKIGDKRDEIDLFFFKINGRWILKSVEVHRR”: 1.47. “SDEEESFFTMLELFVEYLHTGDEHEFKKLADPHVRSLYDGVELHGREWFIRKFREMRVKSLHFHHSDIHIINGRARARIDVRLDGEVNGVEDLTETEIRLEVHKVDGQWVFHSVEIHRK” came in with a protease stability score of 1.33.

For the sequence “SDEEEYTRKAIERWIKDFITGNEDLIRKFADPNTRMEWNGKEHHGMELMVKVLKREIHEIRLQKFDVHHVEIYNGRAIVHLKLHGTIDGREETLDVIIFSEKINGQWRVEQLSIR”, the protease stability score worked out at 1.39. Next, “SDEEHELREATEILLHLFLTGDEESLDNLADPNVRVDYNGVKYHGREVLSFWLHEELKHARIHIRIRSLHLVGEFLHIQGEVRIEQGEFRRRHDMHWIIEKVDGRWIIRYVLIK”: 1.56; “SDEEHIVQVALKNYIKAVMTGDEHLFNELMDPNTRNDINGVIYHGMEEWVKSVEELGIERFTIHEVYEHDFRVYNGQVDIHVRVDREVNGRRINDEVEIVAYKVNGRWQLRSLIFR”: 1.39; “SDEEHLAERASKEWRHSVRTGDEHQLHEMIDPHVKLIVGDKEFHGREHFLEHLKHLRIKNVDIKRIRIIGDKVEIDSELHGHVNGVEIRTREHIHIEKIDGRWVITEVIWV”: 0.955. In turn, “SDEEHQWELAFRFWITILKTGDEDHFERLADPHYLLQIGDKHVVGREQIAREIEKYRRELGVDHSHFDVDHIQVVGDKVEIQGSLEIRVGDKSIHHTTRTIIRKVDGRWLLKKVHFG” showed a protease stability score of 1.23. Next, “SDEEHRREKLNRIMLEWWMTGDWKHIEHLADPNVRLEMNIGNKHLDHHGREELSRLIIELLKELGFKHSHLEHVEIQGDKFISIVRLHVNGVHFIVHIESVIINGKLTELRIEIRKV”: 1.21; “SDEEHSLKRMWKELAHAMMTGDEHTVTELLDPHVRFEYGEFDLHGREDWLEFLREIRILIHHFEVRHINNFENHINTDGFTDIIIIIGDKDIRRRRKTQYFQVKVNGQWLFRSIHVR”: 1.41; “SDEEHVSRIALEIDIWLKETGDEHLLRHYLDPDTRSHFNGRSVHGMDILIKILHHWRIHDLEVKRMHLVGDFVELDIRVDGTFNGRRINMEQIIHVEKIDGQWHLKEVRIH”: 1.54. With “SDEEIAAKYMEDELQKSLKTGDEQKFRHLADPNVRSDINGVELIGWELIIKYWREIRSKVEDVRLKRVDVQGDKIHLHGLVDVEINVNGVRTREHLESHFVIVKIDGRWYVHSIEIR” the figure was 0.659. With “SDEEKDAKRAIEIYLRMVETGDEETSKELMDPNVRMHVNGQDVHGRERVAKLFHELSRRIDHHEVRLDRWDVQGDKLIIHTEIIWRVNGVEIRRRTLIIMRKFNGRWYIEELNIE” the figure was 0.181. On to “SDEEKESKHMFKIYLDFLRTGNEEQYSEMADPNVRIEVNGVTIHGRELAVKFMKEVRDEMRIHDYRIRHLDVFNGRVHADTEENVEFNGVRFITRTKIHLHIVNGRIKSVREEID”, for which the protease stability score is 0.903. With “SDEEKFFEKLLRDILHLWLTGDEDTFHQLLDPNMRSDVDGVDLHGRETVAKFLKERLKHLGIDHVQLESETAIGDKFFINTTISINGVETKMHLHFRVVNGVVHSLEVKVR” the figure was 1.26; with “SDEEKFMHEMYELILKALHTGDEEFLEHFADPNTRLHINGRERHGRDEMKEFFKKFLDHWRIERFHVRSVEIFDGRVTSDTEIRGNIDGVRSEHRTDINIVIVNGRLKEINIHIE”, 0.537. Next, “SDEEKHAEEYHRQLTRDIMTGDEHILHELVDPHVLERVDGKDNHGWEEIAHFWVRFKNMRMHIEIHEIRHIGDFVDSDIKIRVVYNGKDITMRVHFHVEKINGRWLTTHIRIK”: 0.352. Next, “SDEEKIARLALEILIKILLTGDEKMILDNADPDVRLEVNGRQIHGMEWLSKIMTEWRFRDTHVRSVRNINGVVHVDGEQDVNYNGREETVHTHYIIEKVNGVWFLKRVVLH”: 1.44; “SDEERDANRFIKLWVDAMTTGDWEEISLLLDPNVLLLVGDKTYHGREEFVRIMHELIERVKNIRVEIKHREVQGDKIRVDTVLRVNGRTLREHVVMEKVNGQWVIRSLEFD”: 2.3; “SDEERDFTRLIRILRDALRTGDEHKLHELLDPHTRIIFDGQHHIGWERILEWADQIDHVHFRMTLHTVDIQGDKLRADLSLDVKIQVDGRTEHRHNVMHITVQKVNGRWRIQELYYK”: 1.27. In turn, “SDEERDSRKAEEKWIRTLETGDERIITELADPNVRLEIGDKTFHGREDFYKFMTYLTRHLRVERFEIKRFDFQGEWIHMKTHINMRVGEFSHHSDTEIVAYKVNGRWVIHNVRVE” gave a protease stability score of 0.831. Next, “SDEEREFDIAFHLMRHVERTGDPHDMTKMADPNVRVDINGVEVVGREQLREEMRKLGVKYSHVEDFRTFDGRVILHGTLEINGQRRNTEIYASKINGRWHVEEYRFR”: 1.14.

As for “SDEEREIEHLARLFLEWWYTGDEDTIMKNADPHVRHDFNGVENIGRERVAEVVVHLIRELRIKSMHLHDIDIQGNKVDMNIELDGTYNGKRRKREMEIELVFINGRIKSSHVTIK”, the protease stability score amounted to 1.17. Next, “SDEERHAEFVSRRILHALRTGDWEILFKMADPNVKSTIGDKHHHGWEIMSDMYKKLWEDLGVKHLDLKRITYVDGVVHIDERIRIGDKTHNVELNFVVIDGVLRSVEVHVR”: 1.14; “SDEERLLHELLHRVLHKRVTGDEESIWREIDPRARIDVNGRDVHGRDHFFEFIVKWMMHYGINHLEIKNQREIDGRIDVDFHEEVGDKRFHVRIIFHKINGRWHLTQEVFT”: 1.19; “SDEERLLKEIYRIWIRLFETGDWKEFEQMFDPNVRLIIGDKDLHGMELYSKFMRHFVEHIRFEDHQEHEIRVIGDKIHVHGREVGNVNGKRHRREIEIRLVVVNGVFKSEELRVH”: 1.18. “SDEERSIKILIDLYRLAQETGDERIMREYADPDMKLDIGDKRDHGWEVLVRMVRHLRFHEIHIEHFEVQGNKMHITVRIDTEVNGQRWILRAHIIVTKFNGKWRIEHREEE”: the protease stability score came out at 1.45. With “SDEETITREYIRILIKMMRTGDESTLTRLADPHVRVDINGKDLHGRESLVEEMHKLIRDLGVERIEVHFRNIHIQGEWIVIHIDLQIGDKRFEVRDIALKIDGRWVHKSIEIQ” the figure was 1.33. Turning to “SDEHDVVRELLEIMEIVWRTGDWREMTKMFDPNTRISYGDKYIVGWEALEVLLKRIDHHTMHEIHFRDVHVQGDKIRLDGEVRFERHVGDYREHVTVDVHIHARKIDGRWINTNIRTH”, the protease stability score stood at 0.743. Next, “SDEHERLKRFAEEWIRAVITGDFDRLYELMDPHARYHQGDKNHHGRDQIRHFLHRFKNIRIDYHRIELIGDKVHMDGWINYDGKEVETKITVHVIDGRVHIIHVWEI”: 1.39; “SDEHEWERHLYHVLIHAVNTGDEDLVTEMMDPHVRTDINGVELHGRNELSRQLKEMGIKHLEIEHLDFVGNFLVSQVRVDVNGVDYKSEIIALKINGKWLLSELRLE”: 1.04.
